Results on eight molecules are retold here after PMC5433836 (Biochemistry, 2016).

In one test the target is Pals1 (UniProt Q8N3R9). The following applies: cited from earlier work.
In another test the target is Par-6. Conditions: Cdc42-GTP:Par-6; cited from earlier work.
Test [1] addresses disulfide-stabilized Par-6 CRIB-PDZ (CRIB-PDZ^Q144C/L164C) (D. melanogaster). The test can be described thus: ITC. For orientation: Isothermal titration calorimetry measures the heat released or taken up as one component is titrated into another.
For another test, the system named is Par-6 PDZ^156–255. Nature of the test: 1H-15N HSQC NMR titration of PDZ^156–255 with peptide. Type of test: binding, D. melanogaster. The following applies: 25 °C, 0.1–0.25 mM 15N-labeled protein, 90% H2O/10% D2O, pH 5.5.
A further test has as its target Crumbs CTD (UniProt P10040). Conditions: cited from earlier work.
In test [2] the target is Cdc42:CRIB-PDZ^130–255 complex (Cdc42 loaded with GMPPNP) ( | D. melanogaster, UniProt P60953 1-191; O97111 130-255). The test can be described thus: fluorescence polarisation.
For test [3], the target named is Par-6 CRIB-PDZ module (CRIB-PDZ^130–255) (D. melanogaster) (UniProt O97111). Nature of the test: fluorescence polarisation. Background: Fluorescence polarisation rises when a labelled molecule tumbles more slowly, as on binding a larger partner.
The target in test [4] is disulfide-stabilized Par-6 CRIB-PDZ (CRIB-PDZ^Q144C/L164C) (D. melanogaster). Nature of the test: fluorescence polarisation.
The target in test [5] is Par-6 PDZ domain (residues 156–255) (D. melanogaster) (UniProt O97111). The test can be described thus: fluorescence polarisation.
In test [6] the target is Par-6 CRIB-PDZ module (CRIB-PDZ^130–255) (D. melanogaster) (UniProt O97111). Nature of the test: fluorescence polarisation. This is another data set of the same source.

“Also recorded” adds a separate entry of the source. Like-named read-outs stand apart in the source and are kept apart here. Where no end group is shown, it is not given here. The star is where a group is joined. RhodamineB = CCN(CC)c1ccc2c(-c3ccccc3C(=O)*)c3ccc(=[N+](CC)CC)cc-3oc2c1

Sequence of Pals1 (Q8N3R9 whole entry): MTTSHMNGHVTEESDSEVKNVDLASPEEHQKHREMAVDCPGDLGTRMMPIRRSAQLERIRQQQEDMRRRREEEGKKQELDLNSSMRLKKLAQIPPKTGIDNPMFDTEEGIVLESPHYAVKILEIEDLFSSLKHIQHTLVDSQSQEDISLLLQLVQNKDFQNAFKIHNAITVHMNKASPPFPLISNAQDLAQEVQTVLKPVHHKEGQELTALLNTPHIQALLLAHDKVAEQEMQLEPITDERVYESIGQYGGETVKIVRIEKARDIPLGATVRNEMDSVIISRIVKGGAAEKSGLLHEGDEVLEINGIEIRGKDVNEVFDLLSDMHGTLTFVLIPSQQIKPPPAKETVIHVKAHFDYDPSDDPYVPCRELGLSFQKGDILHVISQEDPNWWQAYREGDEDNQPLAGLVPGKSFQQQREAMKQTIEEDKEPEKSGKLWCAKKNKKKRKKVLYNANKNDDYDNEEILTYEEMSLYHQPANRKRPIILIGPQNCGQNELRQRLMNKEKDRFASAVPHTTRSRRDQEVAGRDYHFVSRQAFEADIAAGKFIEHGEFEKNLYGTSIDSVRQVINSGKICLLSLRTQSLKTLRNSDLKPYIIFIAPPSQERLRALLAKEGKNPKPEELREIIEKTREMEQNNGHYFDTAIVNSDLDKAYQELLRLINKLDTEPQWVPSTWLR
Sequence of Par-6 CRIB-PDZ (Q9NPB6 126-253): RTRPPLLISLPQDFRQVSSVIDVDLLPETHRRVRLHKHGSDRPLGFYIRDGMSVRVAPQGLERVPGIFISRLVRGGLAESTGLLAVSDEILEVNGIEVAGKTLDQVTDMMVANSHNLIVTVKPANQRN
Sequence of Crumbs CTD (P10040 2110-2146): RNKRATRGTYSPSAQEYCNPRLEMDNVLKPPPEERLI
Sequence of Pals1 PDZ-SH3-GK (Q8N3R9 236-675): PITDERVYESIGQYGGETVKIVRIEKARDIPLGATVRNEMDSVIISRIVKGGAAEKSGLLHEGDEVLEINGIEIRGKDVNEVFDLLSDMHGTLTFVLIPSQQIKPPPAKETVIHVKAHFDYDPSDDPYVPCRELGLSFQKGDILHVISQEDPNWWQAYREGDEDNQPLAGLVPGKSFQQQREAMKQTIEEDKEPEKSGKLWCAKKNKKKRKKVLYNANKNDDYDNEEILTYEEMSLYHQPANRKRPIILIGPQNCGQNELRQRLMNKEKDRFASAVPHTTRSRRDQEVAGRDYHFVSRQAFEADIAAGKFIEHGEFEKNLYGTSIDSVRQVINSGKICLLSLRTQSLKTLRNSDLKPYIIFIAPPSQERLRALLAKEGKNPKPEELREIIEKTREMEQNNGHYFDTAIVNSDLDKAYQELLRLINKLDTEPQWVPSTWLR

A word on the Kd: it is the equilibrium constant for the complex coming apart. Par-6 CRIB-PDZ (from UniProt Q9NPB6): the Kd in the test with Pals1 is 6 µM.
As for “Cdc42-GTP: monomeric GTPase Cdc42 bound to GTP; binds the CRIB module of Par-6”, on Par-6, the Kd was approximately 0.05 µM and the binding energy is recorded as ~ 10 kcal/mol.
Broadly, the stoichiometry N is the number of molecules, sites or subunits per partner or assembly. In test [1], VKESLV peptide displayed an equilibrium dissociation constant (Kd) of 17 µM, a dH of -3.4 kcal/mol and a stoichiometry N of 1.09.
Regarding LPPEERLI [LPPEERLI], the “HSQC titration behaviour / binding mode” value in the test with Par-6 PDZ^156–255 is “Significant shifts were observed for many amino acids in and near the PDZ ligand binding cleft; also recorded: consistent with binding at a second, low affinity site”.
With Pals1 PDZ-SH3-GK (from UniProt Q8N3R9), the Kd with Crumbs CTD is 0.1 µM.
On to RhodamineB-VKESLV [N-terminally Rhodamine B-labeled VKESLV peptide], for which the equilibrium dissociation constant (Kd) worked out at 6 µM in test [2], 54 µM in test [3], 13 µM in test [4] and 72 µM in test [5].
Turning to RhodamineB-GEERLI [N-terminally Rhodamine B-labeled GEERLI peptide], the Kd turned out to be 7.2 µM in test [6]; 1.2 µM in [2]; 7.3 µM in test [3]; 2.5 µM in [4]; 12 µM in test [5].
For GEERLI [modified Crumbs peptide lacking the proline residues (GEERLI)], in test [1], the Kd amounted to 1.9 µM, the dH was -7.21 kcal/mol and the stoichiometry N is 1.05.
